Where “and” joins values, the source holds several entries; their conditions need not be identical. Equal values may be shown once. Read-outs that look alike come from different tables or passages of the source. Values belong to the binder of their own block, whether it stands above or below them.
Key:
[1] = biological target: T1, human TIM-3 on huTIM-3-CHO-S cells (human, UniProt Q8TDQ0 22-202); experiment: flow cytometry on CHO-S-hTIM3 cells
T1 construct: Membrane-anchored human TIM-3 ECD (NP_116171) stably expressed on CHO-S cells; also called CHO-S-hTIM3; CHO-S-hTIM-3; not shown: membrane anchor of the expression vector, not described

[2] = biological target: T2, human TIM-3 ECD with 6-His tag (hu TIM-3-His6) (human, UniProt Q8TDQ0 22-200); experiment: SPR (Biacore)
T2 construct: Novoprotein Cat# C356; the entry includes the His tag; also called hTIM3-His; human TIM3-His6

[3] = biological target: T3, cyno TIM-3-His6 (cynomolgus monkey); experiment: SPR (Biacore)
T3 construct: Made in HEK293 cells; not shown: 6-His tag
T3 chain: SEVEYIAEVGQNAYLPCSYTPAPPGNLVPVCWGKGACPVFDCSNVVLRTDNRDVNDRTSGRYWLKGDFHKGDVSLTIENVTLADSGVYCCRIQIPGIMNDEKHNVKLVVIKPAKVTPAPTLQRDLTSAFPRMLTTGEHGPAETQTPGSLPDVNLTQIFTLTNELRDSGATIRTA

[4] = biological target: T2, human TIM-3 ECD with 6-His tag (hu …); experiment: SPR (Biacore), relative to 3903E11 (VH1.0, VL1.0)
[5] = biological target: T1, human TIM-3 on huTIM-3-CHO-S cells; experiment: FACS on CHO-S-hTIM-3 cells
[6] = biological target: T2, human TIM-3 ECD with 6-His tag (hu …); experiment: ELISA, antigen coated
[7] = biological target: T4, cyno TIM-3-muFc (cynomolgus monkey); experiment: ELISA, antigen coated
T4 construct: Made in HEK293 cells; also called cyno TIM3-mFc; not shown: murine Fc
T4 chain: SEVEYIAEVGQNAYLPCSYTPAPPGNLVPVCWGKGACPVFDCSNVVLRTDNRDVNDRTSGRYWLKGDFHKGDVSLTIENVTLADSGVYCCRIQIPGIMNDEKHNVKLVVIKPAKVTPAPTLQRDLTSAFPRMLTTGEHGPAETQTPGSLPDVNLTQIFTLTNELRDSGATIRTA

[8] = biological target: T3, cyno TIM-3-His6; experiment: ELISA, antigen coated
[9] = biological target: T2, human TIM-3 ECD with 6-His tag (hu …); experiment: SPR, antibody captured, TIM-3 as analyte
[10] = biological target: T3, cyno TIM-3-His6; experiment: SPR, antibody captured, TIM-3 as analyte
[11] = biological target: T1, human TIM-3 on huTIM-3-CHO-S cells; experiment: cell-based or functional assay
[12] = biological target: T5, cyno TIM-3 on cynoTIM-3-Expi293F cells (cynomolgus monkey); experiment: flow cytometry on 293F-cynoTIM-3 cells
T5 construct: Membrane-anchored cyno TIM-3 ECD (XP_005558438) transiently expressed on Expi293F cells; not shown: membrane anchor of the expression vector, not described
T5 chain: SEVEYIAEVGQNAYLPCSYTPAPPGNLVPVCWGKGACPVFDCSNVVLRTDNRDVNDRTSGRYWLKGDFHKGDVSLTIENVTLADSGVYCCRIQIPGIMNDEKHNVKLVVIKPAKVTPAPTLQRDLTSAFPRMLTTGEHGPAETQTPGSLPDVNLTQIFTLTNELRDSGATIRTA

[13] = biological target: T6, human TIM-3 ECD fused to human IgG1 Fc domain (huTIM-3-Fc) (human, UniProt Q8TDQ0 22-202); experiment: ELISA: plate-bound rhTIM-3-Fc pre-incubated with antibody, His-tagged CEACAM1 detected
T6 construct: extracellular domain; Bought; Biotinylated (Sulfo-NHS-LC-Biotin) in the galectin-9 ELISAs; also called Human-TIM3-biotin; huTIM-3-Fc-biotin; not shown: human IgG1 Fc domain

[14] = biological target: FcRn (UniProt P55899 24-297; P61769 21-119, limits assumed); experiment: BLI (Octet), steady state
[15] = biological target: T6, human TIM-3 ECD fused to human IgG1 Fc …; experiment: competition ELISA: huTIM-3-Fc-biotin (0.5 µg/ml) binding to coated galectin-9
[16] = biological target: T7, wild-type TIM-3 (hu TIM-3), HEK-expressed (human, UniProt Q8TDQ0 22-202, limits assumed); experiment: SPR
T7 construct: Soluble protein of the mutagenesis study

[17] = biological target: T8, FCγRIIIa (CD16a)_V158 (UniProt P08637 17-208); experiment: BLI (Octet), antibody on FAB2G tips
T8 construct: Bought

[18] = biological target: T9, FCγRI (CD64) (UniProt P12314 16-288); experiment: BLI (Octet), antibody on FAB2G tips
T9 construct: Bought

[19] = biological target: T10, FCγRIIa (CD32a)_H131 (UniProt P12318 36-218, limits assumed); experiment: BLI (Octet), antibody on FAB2G tips
T10 construct: Bought
T10 sequence (looked up): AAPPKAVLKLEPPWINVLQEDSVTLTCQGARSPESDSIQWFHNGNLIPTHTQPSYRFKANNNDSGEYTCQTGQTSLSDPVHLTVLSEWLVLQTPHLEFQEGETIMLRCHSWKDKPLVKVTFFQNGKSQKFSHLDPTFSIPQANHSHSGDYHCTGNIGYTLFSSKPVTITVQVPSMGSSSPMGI

[20] = biological target: T7, wild-type TIM-3 (hu TIM-3), …; experiment: SPR; remark: listed apart in the source
[21] = biological target: T11, human TIM-3 on primary human blood cells (CD14+ monocytes in whole blood; PBMCs) (human, UniProt Q8TDQ0 22-301); experiment: flow cytometry on fresh human whole blood, CD14+ monocytes; unoccupied TIM-3 detected with the competing anti-TIM-3 (2E2)-APC; donors KP46231, KP46315, KP46318 (not separated)
T11 construct: whole, on cells; Endogenous receptor on donor cells; also called TIM-3 on CD14+ monocytes

[22] = biological target: T11, human TIM-3 on primary human blood …; experiment: flow cytometry on fresh human whole blood, CD14+ monocytes; unoccupied TIM-3 detected with the competing anti-TIM-3 (2E2)-APC; donor KP46233
[23] = biological target: T11, human TIM-3 on primary human blood …; experiment: target occupancy on CD14+ monocytes in human whole blood, flow cytometry; free TIM-3 detected with competing anti-TIM-3(2E2)-APC
[24] = biological target: T8, FCγRIIIa (CD16a)_V158; experiment: BLI (Octet), steady state
[25] = biological target: T10, FCγRIIa (CD32a)_H131; experiment: BLI (Octet), steady state
[26] = biological target: T2, human TIM-3 ECD with 6-His tag (hu …); experiment: ELISA, antigen coated; remark: listed apart in the source
[27] = biological target: T3, cyno TIM-3-His6; experiment: ELISA, antigen coated
[28] = biological target: T12, marmoset TIM-3 ECD with 6-His tag (marmoset TIM-3-His6) (marmoset); experiment: ELISA, antigen coated
T12 construct: Novoprotein Cat# CM64; the entry includes the His tag
T12 chain: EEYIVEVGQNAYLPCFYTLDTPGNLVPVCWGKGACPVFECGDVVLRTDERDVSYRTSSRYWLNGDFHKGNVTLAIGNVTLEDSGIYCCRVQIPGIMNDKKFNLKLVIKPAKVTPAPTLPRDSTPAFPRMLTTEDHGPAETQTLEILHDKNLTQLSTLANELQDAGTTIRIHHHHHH

[29] = biological target: T2, human TIM-3 ECD with 6-His tag (hu …); experiment: SPR, antibody captured, TIM-3 as analyte; remark: listed apart in the source
[30] = biological target: T3, cyno TIM-3-His6; experiment: SPR, antibody captured, TIM-3 as analyte
[31] = biological target: T12, marmoset TIM-3 ECD with 6-His tag …; experiment: SPR, antibody captured, TIM-3 as analyte
[32] = biological target: T9, FCγRI (CD64); experiment: BLI (Octet), antibody on FAB2G tips, kinetic fit
[33] = biological target: T6, human TIM-3 ECD fused to human IgG1 Fc …; experiment: competition ELISA: huTIM-3-Fc-biotin (1 µg/ml) binding to coated galectin-9
[34] = biological target: T1, human TIM-3 on huTIM-3-CHO-S cells; experiment: flow cytometry on CHO-S-hTIM-3 cells

EC50 [1]: 0.9 nM
Kd [2]: 3.5 nM
Kd [3]: 6.9 nM
Human TIM3 KD Ratio to Parent [4]: 1
MFI at 0.1 µg/ml [5]: 137 MFI
MFI at 1 µg/ml [5]: 1390 MFI
MFI at 10 µg/ml [5]: 1490 MFI
EC50 [6]: 0.01 nM
EC50 [7]: 0.01 nM
EC50 [8]: 0.01 nM
Kd [9]: 3.8 nM
Kd [10]: 12 nM
ADCC (51Cr release), Donor 1, EC50 [11]: 0.24 nM
ADCC (51Cr release), Donor 2, EC50 [11]: 0.11 nM
EC50 [12]: 2 nM
B1: Parental Antibody 3903E11 (VL1.0, VH1.0) (antibody, human IgG1, lambda)
heavy: not shown
light: SYELTQPRSVSGSPGQSVTISCTGTSSDVGGYNYVSWYQQHPGKAPKLMIFDVSKRPSGVPDRFSGSKSGNTASLTISGLQAEDEADYYCSSYADSVVFGGGTKVTVLGQPKAAPSVTLFPPSSEELQANKATLVCLISDFYPGAVTVAWKADSSPVKAGVETTTPSKQSNNKYAASSYLSLTPEQWKSHKSYSCQVTHEGSTVEKTVAPTECS
notes: Human IgG1 (IgG1m3), lambda light chain; also called 3903E11 (VH1.0, VL1.0)

IC50 [13]: 0.353 nM and 0.053 µg/mL
Kd [14]: 850 nM
IC50 [15]: 7.46 nM
Kd [16]: 5.7 nM
binding result [17]: no binding (tested: 4000 nM to 62.5 nM)
binding result [18]: no binding (tested: 100 nM to 1.56 nM)
binding result [19]: no binding (tested: 4000 nM to 62.5 nM)
Kd [20]: 6.2 nM
B2: anti-TIM-3-3903E11(VL1.3,VH1.2)-IgG2h(FN-AQ,322A)-delK (antibody)
heavy: not shown
light: QSALTQPRSVSGSPGQSVTISCTGTSSDVGGYNYVSWYQQHPGKAPKLMIYDVSKRPSGVPDRFSGSKSGNTASLTISGLQAEDEADYYCSSYADSVVFGGGTKVTVLGQPKAAPSVTLFPPSSEELQANKATLVCLISDFYPGAVTVAWKADSSPVKAGVETTTPSKQSNNKYAASSYLSLTPEQWKSHKSYSCQVTHEGSTVEKTVAPTECS
notes: Effector-negative engineered IgG2 with IgG1 hinge (C220S), F296A, N297Q, K322A, C-terminal Lys deleted; lambda light chain; also called M6903; copies: 2 + 2

EC50 (read off the curve) [21]: ~0.07 µg/mL
EC50 (read off the curve) [22]: ~0.04 µg/mL
EC50 [23]: 0.111 µg/mL
B3: anti-TIM-3 (A16-019-1) (antibody)
heavy: not shown
light: QSALTQPRSVSGSPGQSVTISCTGTSSDVGGYNYVSWYQQHPGKAPKLMIYDVSKRPSGVPDRFSGSKSGNTASLTISGLQAEDEADYYCSSYADSVVFGGGTKVTVLGQPKAAPSVTLFPPSSEELQANKATLVCLISDFYPGAVTVAWKADSSPVKAGVETTTPSKQSNNKYAASSYLSLTPEQWKSHKSYSCQVTHEGSTVEKTVAPTECS
notes: Said to be identical to M6903 but produced in Expi293F, not CHOK1SV, cells

Kd [2]: 1.6 nM
Kd [3]: 5.3 nM
Kd [14]: 805 nM
Kd [24]: 100 nM
Kd [25]: 630 nM
EC50 [26]: 0.01 nM
EC50 [27]: 0.02 nM
EC50 [28]: 0.01 nM
Kd [29]: 2.4 nM
Kd [30]: 14 nM
Kd [31]: 11 nM
MFI at 0.1 µg/ml [5]: 140 MFI
MFI at 1 µg/ml [5]: 1310 MFI
MFI at 10 µg/ml [5]: 1910 MFI
Kd [32]: 1.7 nM
IC50 [33]: 2.4 nM
EC50 [34]: 2.6 nM
B4: 3903E11 (VL1.3,VH1.2) IgG1 (antibody)
heavy: not shown
light: QSALTQPRSVSGSPGQSVTISCTGTSSDVGGYNYVSWYQQHPGKAPKLMIYDVSKRPSGVPDRFSGSKSGNTASLTISGLQAEDEADYYCSSYADSVVFGGGTKVTVLGQPKAAPSVTLFPPSSEELQANKATLVCLISDFYPGAVTVAWKADSSPVKAGVETTTPSKQSNNKYAASSYLSLTPEQWKSHKSYSCQVTHEGSTVEKTVAPTECS
notes: also called 3903E11 (VH1.2, VL1.3); anti-TIM3-3903E11(VL1.3, VH1.2)-IgG1; copies: 2 + 2

— US20220081480A1 (Merck KGaA, published 2022)
